Assay results published in patent US20150139990A1 (DAINIPPON SUMITOMO PHARMA, published 2015).
Substitutions are numbered along the chain they refer to. Numbers in names are those of the source.

Assays:
Assay in all cases: ELISA
[1] = target: T1, human CD81 mutant V135L (human, UniProt P60033 1-236, limits assumed)
T1 construct: as m30; not shown: C-terminal V5 and 6xHis tags
T1 sequence: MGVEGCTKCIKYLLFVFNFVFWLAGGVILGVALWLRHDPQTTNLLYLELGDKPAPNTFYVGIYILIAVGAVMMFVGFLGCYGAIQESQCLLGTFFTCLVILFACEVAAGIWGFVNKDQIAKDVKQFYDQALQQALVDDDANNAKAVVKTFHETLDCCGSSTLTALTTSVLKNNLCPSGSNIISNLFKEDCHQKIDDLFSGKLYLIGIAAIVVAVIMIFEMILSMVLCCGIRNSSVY
Procedure, shortened: (§1)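 Human CD81 point mutants in pcDNA-DEST40 with C-terminal V5 and 6×His tags were expressed transiently in CHO cells for 48 hours. Membranes were solubilised with 1% n-octylglucoside and loaded at 5 μg/100 μL/well on Ni-NTA His Sorb plates (3 hours, 4° C). Antibody binding (1 hour, room temperature) was detected with HRP anti-human IgG4, TMB and absorbance at 450 nm. Relative binding affinity is the percentage of wild-type CD81 binding, corrected for V5-tag expression.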

[2] = target: T2, human CD81 mutant S168T (human, UniProt P60033 1-236, limits assumed)
T2 construct: as m30; not shown: C-terminal V5 and 6xHis tags
T2 sequence: T1 sequence with L135V, S168T
Procedure, shortened: as §1

[3] = target: T3, human CD81 mutant V169A (human, UniProt P60033 1-236, limits assumed)
T3 construct: as m30; not shown: C-terminal V5 and 6xHis tags
T3 sequence: T1 sequence with L135V, V169A
Procedure, shortened: as §1

[4] = target: T4, human CD81 mutant D137A (human, UniProt P60033 1-236, limits assumed)
T4 construct: as m30; not shown: C-terminal V5 and 6xHis tags
T4 sequence: T1 sequence with L135V, D137A
Procedure, shortened: as §1

[5] = target: T5, human CD81 mutant V169L (human, UniProt P60033 1-236, limits assumed)
T5 construct: as m30; not shown: C-terminal V5 and 6xHis tags
T5 sequence: T1 sequence with L135V, V169L
Procedure, shortened: as §1

[6] = target: T6, human CD81 mutant L165A (human, UniProt P60033 1-236, limits assumed)
T6 construct: as m30; not shown: C-terminal V5 and 6xHis tags
T6 sequence: T1 sequence with L135V, L165A
Procedure, shortened: as §1

[7] = target: T7, human CD81 mutant G158A (human, UniProt P60033 1-236, limits assumed)
T7 construct: as m30; not shown: C-terminal V5 and 6xHis tags
T7 sequence: T1 sequence with L135V, G158A
Procedure, shortened: as §1

[8] = target: T8, human CD81 mutant A164T (human, UniProt P60033 1-236, limits assumed)
T8 construct: as m30; not shown: C-terminal V5 and 6xHis tags
T8 sequence: T1 sequence with L135V, A164T
Procedure, shortened: as §1

[9] = target: T9, human CD81 mutant G158S (human, UniProt P60033 1-236, limits assumed)
T9 construct: as m30; not shown: C-terminal V5 and 6xHis tags
T9 sequence: T1 sequence with L135V, G158S
Procedure, shortened: as §1

Measured: relative binding affinity

B1: 002-A07 IgG4 antibody (antibody)
heavy: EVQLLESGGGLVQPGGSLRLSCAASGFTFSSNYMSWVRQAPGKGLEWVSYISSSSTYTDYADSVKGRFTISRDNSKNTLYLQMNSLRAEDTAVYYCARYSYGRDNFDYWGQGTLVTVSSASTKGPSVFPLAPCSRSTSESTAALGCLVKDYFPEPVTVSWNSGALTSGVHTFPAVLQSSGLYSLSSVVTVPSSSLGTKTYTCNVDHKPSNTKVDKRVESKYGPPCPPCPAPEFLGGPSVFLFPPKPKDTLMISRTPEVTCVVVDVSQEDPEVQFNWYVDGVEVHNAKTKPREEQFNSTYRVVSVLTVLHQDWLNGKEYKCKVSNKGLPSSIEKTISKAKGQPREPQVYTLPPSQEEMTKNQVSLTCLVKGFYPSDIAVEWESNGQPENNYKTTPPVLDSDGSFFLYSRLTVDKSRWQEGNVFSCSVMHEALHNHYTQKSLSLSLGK
light: QSVLTQPPSASGTPGQRVTISCTGSTSNIGAGYDTHWYQQLPGTAPKLLIYGNSNRPSGVPDRFSGSKSGTSASLAISGLRSEDEADYYCQSYDTNLSVWVFGGGTKLTVLGQPKAAPSVTLFPPSSEELQANKATLVCLISDFYPGAVTVAWKADSSPVKAGVETTTPSKQSNNKYAASSYLSLTPEQWKSHRSYSCQVTHEGSTVEKTVAPTECS
notes: human IgG4 S228P, lambda light chain
< 20%: all assays above
